The target of this experiment is T1, Aeropyrum pernix aEF1α (residues 7-437), C-terminally His-tagged, wild type (Aeropyrum pernix, UniProt Q9YAV0 7-437).
T1 sequence: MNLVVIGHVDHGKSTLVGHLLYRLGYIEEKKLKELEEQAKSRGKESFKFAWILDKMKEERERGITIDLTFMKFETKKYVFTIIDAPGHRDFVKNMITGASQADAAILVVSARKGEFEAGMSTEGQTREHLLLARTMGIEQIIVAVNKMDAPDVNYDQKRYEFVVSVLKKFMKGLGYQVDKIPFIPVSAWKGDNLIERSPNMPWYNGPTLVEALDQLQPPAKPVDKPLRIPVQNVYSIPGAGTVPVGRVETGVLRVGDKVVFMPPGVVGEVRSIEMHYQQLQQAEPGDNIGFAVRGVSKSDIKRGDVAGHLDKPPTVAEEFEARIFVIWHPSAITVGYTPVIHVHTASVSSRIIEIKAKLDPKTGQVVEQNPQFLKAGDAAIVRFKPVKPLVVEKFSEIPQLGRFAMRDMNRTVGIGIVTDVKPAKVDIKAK
Kind of experiment: pull-down.

We go through one molecule from paper PMC3467058 (Nucleic Acids Research, 2012).

B1: archaeal RF1 (aRF1), archaeal class I release factor, Aeropyrum pernix (natural protein)
chain: MSQGRLEERLTISKRELARLLKELKKWSAPATVLLSLYIPPGRPLSDVMTLLRQEYSITDNIKLKRTRQAVKRALSAAMDRLQMLTSTPPNGLVLFCGEDMSTGKFECFMFSPPEPIRVFYYRTDKRFITDFLEDMVEDNNAIGIIIVERDQATIGLLKGARLEVLKELEGFVPGKHKMGGQSQRRYERIIEQMVDEFFKKVGEEASNLLVPLAEKGVLKGVIVAGPGLAKQEFVEGNYLDYRLKKILAPELVDVAYQGLQGLKEAVMKAEKVVEAQMYRDAVNAMEEFKLHLAKGTGMIVYGEKDVEAALEMGAVKTLLIHESREDLEEWVEKAKSSGAQVIVVPESLAEAEWFLKTFGGLAGILRFRISTV
Turning to B1, the binding result is “binds”.
